The record followed here is patent publication US20230054375A1 (UAB RESEARCH FOUNDATION, published 2023).

For this assay, the target named is CD47 receptor (plate-coated and soluble antigen of the affinity ELISA) (UniProt Q08722 19-141, limits assumed). The assay is described as follows: ELISA of equilibrated mAb/receptor mixtures on CD47-coated plate (Friguet method). (In an ELISA, binding on a coated surface is turned into a signal by an enzyme label.)
Chain of CD47 receptor (plate-coated and soluble antigen of the affinity ELISA) (Q08722 19-141 limits assumed): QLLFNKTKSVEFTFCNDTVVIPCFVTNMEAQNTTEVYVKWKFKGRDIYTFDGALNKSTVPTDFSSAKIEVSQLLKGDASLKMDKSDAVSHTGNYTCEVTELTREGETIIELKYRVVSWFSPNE

Description: Briefly, the 96-well plate was coated with 200 ng of CD47 receptor in 100 μL of coating buffer (50 mM carbonate-bicarbonate buffer, pH 9.6) and incubated at 4° C. overnight. The plate was washed three times with PBS containing 0.05% Tween 20, and blocked with 2% BSA (bovine serum albumin). […] After incubating at 37° C. for 1 hr, 100 μL of HRP goat anti-mouse IgG secondary antibody (Abcam, Cambridge, Mass.) at concentration of 50 ng/mL was added to each well and incubated at 37° C. for 1 hr, followed with TMB substrate for color development. The reaction was stopped by adding 100 μL of 1M sulfuric acid. The absorbance was recorded with BioTek plate reader at a wavelength of 450 nm.

B1: anti-CD47 monoclonal antibody (IgG2b/kappa) (antibody, V domains shown)
VH: EVQLVESGGGLVQPKGSLKLSCAASGFTFNTYAMNWVRQAPGKGLEWIARIRSKSNNYATYYADSMKDRFTISRDDSQSMLYLQMNNLKTEDTAMYYCVRPAQGAMDYWGHGTSVTVSS
VL: DIVLTQSPATLSVTPGDSVSLSCRASQRISNNLHWYQQKSHESPRLLIKYSSQSISGIPSRFSGSGSGTDFTLSINSVETEDFGMYFCQQSNAWPYTFGGGTKLEIRR
notes: The antibody was labelled with Alexa Fluor 647 for flow cytometry and confocal imaging; also called anti-CD47 mAb; CD47 mAb
As usually defined, the Kd is the free concentration of one partner at which half of the binding sites on the other are occupied at equilibrium, for simple one-to-one binding. B1: the equilibrium dissociation constant (Kd) turned out to be 2.3 nM.
